Results from patent US20210221875A1 (Chugai, published 2021).

T1: soluble human IL-6R (human, UniProt P08887 20-357)
T1 construct: also called hsIL-6R; recombinant human IL6R
T1 sequence: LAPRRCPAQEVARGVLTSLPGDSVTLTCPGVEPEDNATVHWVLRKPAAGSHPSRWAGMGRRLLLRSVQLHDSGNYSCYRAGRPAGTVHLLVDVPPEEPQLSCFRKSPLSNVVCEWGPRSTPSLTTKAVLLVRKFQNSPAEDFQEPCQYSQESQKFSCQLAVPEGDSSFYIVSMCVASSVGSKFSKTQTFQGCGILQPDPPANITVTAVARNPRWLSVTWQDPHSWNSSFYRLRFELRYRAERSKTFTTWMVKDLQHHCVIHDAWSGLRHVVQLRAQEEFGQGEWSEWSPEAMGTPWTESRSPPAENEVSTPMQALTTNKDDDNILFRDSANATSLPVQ

B1: 20A11hu-G1m/VL1-40-lamL (antibody, human IgG1, lambda, V domains shown)
VH: EVQLVESGGGLVQPGGSLRLSCAASGSVFKINVMAWVRQAPGKGLEWVAGIISGGSTSYADSVKGRFTISRDNAKNTLYLQMNSLRPEDTAVYYCAFITTESDYDLGRRYWGQGTLVTVSS
VL: QSVLTQPPSVSGAPGQRVTISCTGSSSNIGAGYDVHWYQQLPGTAPKLLIYGNSNRPSGVPDRFSGSKSGTSASLAITGLQAEDEADYYCQSYDNSLNAVVFGGGTKLTVLG
notes: IgG antibody-like molecule with VHH 20A11hu in place of VH
B2: 20A11hu-G1m/VL1-44-lamL (antibody, human IgG1, lambda, V domains shown)
VH: EVQLVESGGGLVQPGGSLRLSCAASGSVFKINVMAWVRQAPGKGLEWVAGIISGGSTSYADSVKGRFTISRDNAKNTLYLQMNSLRPEDTAVYYCAFITTESDYDLGRRYWGQGTLVTVSS
VL: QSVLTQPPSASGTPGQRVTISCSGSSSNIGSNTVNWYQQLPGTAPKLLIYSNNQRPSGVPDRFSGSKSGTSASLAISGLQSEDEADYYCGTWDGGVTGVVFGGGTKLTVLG
notes: as for B1
B3: 20A11hu-G1m/VL2-14-lamL (antibody, human IgG1, lambda, V domains shown)
VH: EVQLVESGGGLVQPGGSLRLSCAASGSVFKINVMAWVRQAPGKGLEWVAGIISGGSTSYADSVKGRFTISRDNAKNTLYLQMNSLRPEDTAVYYCAFITTESDYDLGRRYWGQGTLVTVSS
VL: QSALTQPASVSGSPGQSITISCTGTSSDVGGYNYVSWYQQHPGKAPKLMIYEVSNRPSGVSNRFSGSKSGNTASLTISGLQAEDEADYYCSSYRSGYTLVVFGGGTKLTVLG
notes: as for B1
B4: IL6R90-G1m/VK2-28-k0MT (antibody, human IgG1, kappa, V domains shown)
VH: EVQLVESGGGLVQPGGSLRLSCAASGFTFDDYGMSWVRQAPGKALEWVSAISWNGNNTYYTESMKGRFTISRDNAKNTLYLQMNSLRPEDTAVYYCVKGSTAIVGVPPTYPDEYDYWGQGTLVTVSS
VL: not shown
notes: IgG antibody-like molecule with VHH IL6R90 in place of VH
B5: IL6R90-G1m/VL2-14-lamL (antibody, human IgG1, lambda, V domains shown)
VH: EVQLVESGGGLVQPGGSLRLSCAASGFTFDDYGMSWVRQAPGKALEWVSAISWNGNNTYYTESMKGRFTISRDNAKNTLYLQMNSLRPEDTAVYYCVKGSTAIVGVPPTYPDEYDYWGQGTLVTVSS
VL: QSALTQPASVSGSPGQSITISCTGTSSDVGGYNYVSWYQQHPGKAPKLMIYEVSNRPSGVSNRFSGSKSGNTASLTISGLQAEDEADYYCSSYRSGYTLVVFGGGTKLTVLG
notes: as for B4
B6: IL6R90-G1m/VL1-44-lamL (antibody, human IgG1, lambda, V domains shown)
VH: EVQLVESGGGLVQPGGSLRLSCAASGFTFDDYGMSWVRQAPGKALEWVSAISWNGNNTYYTESMKGRFTISRDNAKNTLYLQMNSLRPEDTAVYYCVKGSTAIVGVPPTYPDEYDYWGQGTLVTVSS
VL: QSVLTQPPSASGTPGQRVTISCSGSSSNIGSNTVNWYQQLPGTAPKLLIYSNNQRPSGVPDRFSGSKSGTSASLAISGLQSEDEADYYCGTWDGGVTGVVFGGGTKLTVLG
notes: as for B4
B7: IL6R90-G1m/VL1-40-lamL (antibody, human IgG1, lambda, V domains shown)
VH: EVQLVESGGGLVQPGGSLRLSCAASGFTFDDYGMSWVRQAPGKALEWVSAISWNGNNTYYTESMKGRFTISRDNAKNTLYLQMNSLRPEDTAVYYCVKGSTAIVGVPPTYPDEYDYWGQGTLVTVSS
VL: QSVLTQPPSVSGAPGQRVTISCTGSSSNIGAGYDVHWYQQLPGTAPKLLIYGNSNRPSGVPDRFSGSKSGTSASLAITGLQAEDEADYYCQSYDNSLNAVVFGGGTKLTVLG
notes: as for B4

target: T1, soluble human IL-6R; assay: BLI (Octet), in the same way as in Example 3, 30 C or 25 C

Binding result, no binding:
B1, B2, B3

target: T1, soluble human IL-6R; assay: BLI (Octet HTX), molecule on Protein A sensor, hsIL-6R as analyte, 30 C
Method: The hsIL-6R binding evaluation of each molecule was conducted using Octet HTX (Pall ForteBio Corp.).

Binding result, no binding:
B4, B5, B6, B7
